10 molecules from US20250163138A1 (Alexion, published 2025) can be followed below.

Experiment [1] has as its target T1, human serum albumin (human, UniProt P02768 25-609).
T1 construct: also called HSA; human albumin
Description: SPR (Biacore 3000), HSA amine-coupled on CM5 chip, pH 6.0, no VHH. Background: In SPR one partner is held on a chip, and binding of the other changes the refractive index at the surface.

The target of experiment [2] is T1, human serum albumin. The experiment is described as follows: BLI (Octet HTX), VHH-His on Penta-His sensors, 100 nM albumin. Background: BLI is a label-free optical method that tracks binding on a fibre tip over time.
Description: (§1) VHH sequences were first analyzed by SDS-PAGE and Coomassie staining to determine approximate concentration relative to a known standard. Supernatant concentrations were then normalized and subjected to biolayer interferometry on an Octet HTX (Pall/ForteBio). Penta-His sensors were exposed to kinetics buffer for 60 seconds to establish baseline measurements. The sensors were then loaded with VHH-His containing supernatants for 300 seconds before a second baseline was established in kinetics buffer over 120 seconds. Tips were then incubated with 100 nM HSA or CSA in kinetics buffer for 600 seconds and dissociation measured over an additional 600 seconds.
Experiment [3] concerns the target T2, Cynomolgus monkey serum albumin (cynomolgus monkey, UniProt A2V9Z4 25-608).
T2 construct: also called CSA; cynomolgus albumin
The description is as above.
Description: as §1

For experiment [4], the target named is T3, human complement protein C5 (human, UniProt P01031 19-1676).
T3 construct: Native C5 is a two-chain protein made from one precursor; also called hC5; human C5
The experiment is described as follows: sandwich: biotin-hC5 on CAP chip, test protein, then albumin; column 'Human C5 and Human Albumin'; protein has no anti-C5 domain.
Description: (§2) The 26 constructs listed in Table 13 were expressed and the fusion proteins were evaluated for binding to human C5 and albumin (Table 13-Octet binding), generation of aggregates, hydrophobicity (HIC HPLC) and glycosylation (electrospray mass spectrometry). For the octet analysis, biotinylated human C5 was captured on a CAP chip followed by an injection of a test bi-specific molecule. Various concentrations of albumin were subsequently injected. Kinetics were determined at pH 7.4 (Biacore 3000).

The target in experiment [5] is T1, human serum albumin. The experiment is described as follows: SPR (Biacore 3000), biotinylated albumin on CAP chip, pH 6.0.
Description: (§3) Biotinylated albumin was captured onto a CAP chip saturated with Biotin CAPture reagent containing deoxyribooligonucleotides (obtained from GE Healthcare). Concentrations of purified VHH domains were injected for 5 minutes at a flowrate of 50 μL/min. Three concentrations were assessed per VHH domain. Bound analyte was allowed to dissociate for 600 seconds. The chip surface was regenerated after each concentration by injecting 6 M guanidine HCl/0.25 M NaOH for 2 minutes at 10 μL/min. Kinetics were determined at pH 7.4 and pH 6.0 in HBS-EP buffer using a 1:1 Langmuir model (local Rₘₐₓ and constant RI) and double reference subtraction (subtraction of a buffer concentration cycle from the sample concentration cycle and subtraction of a parallel reference flow cell).
Experiment [6] has as its target T2, Cynomolgus monkey serum albumin. The experiment is described as above.
Description: as §3
Experiment [7] concerns the target T1, human serum albumin. The experiment is described as follows: SPR (Biacore 3000), biotinylated albumin on CAP chip, pH 7.4.
Description: as §3
For experiment [8], the target named is T2, Cynomolgus monkey serum albumin. The description is as above.
Description: as §3
Experiment [9] has as its target T1, human serum albumin. Description: sandwich: biotin-hC5 on CAP chip, test protein, then albumin; column 'Human C5 and Human Albumin'; protein has no anti-albumin domain.
Description: as §2
Experiment [10] concerns the target T3, human complement protein C5. Description: SPR (Biacore), pH 6.0.
Experiment [11] concerns the target T4, cynomolgus monkey (cyno) complement protein C5 (cynomolgus monkey, UniProt A0A2K5U1T1 19-1676).
T4 construct: also called cC5; cyno C5
Description: SPR (Biacore), pH 6.0.

Experiment [12] addresses T3, human complement protein C5. Description: SPR (Biacore), pH 7.4.
In experiment [13] the target is T4, cynomolgus monkey (cyno) complement …. The experiment is described as follows: SPR (Biacore), pH 7.4.
In experiment [14] the target is T3, human complement protein C5. Description: binding kinetics (method not named), pH 6.0.
Experiment [15] deals with T4, cynomolgus monkey (cyno) complement …. The experiment is described as follows: binding kinetics (method not named), pH 6.0.
In experiment [16] the target is T3, human complement protein C5. Description: binding kinetics (method not named), pH 7.4.
Experiment [17] has as its target T4, cynomolgus monkey (cyno) complement …. Description: binding kinetics (method not named), pH 7.4.
Experiment [18] concerns the target T2, Cynomolgus monkey serum albumin. Description: binding kinetics (method not named), pH 6.0.
Experiment [19] addresses T5, Plasbumin® (UniProt P02768 25-609). The experiment is described as follows: binding kinetics (method not named), pH 6.0.
For experiment [20], the target named is T2, Cynomolgus monkey serum albumin. The experiment is described as follows: binding kinetics (method not named), pH 7.4.
For experiment [21], the target named is T5, Plasbumin®. Description: binding kinetics (method not named), pH 7.4.

Broadly, the Kd is the constant that tells how readily two partners part at equilibrium. In general, koff refers to the first-order rate constant of dissociation. A word on the kon: it is the second-order rate constant of association.

Positions count from the first letter of the chain named. Numbers in names are those of the source.

FcRn (receptor) displayed a response difference with human serum albumin [1] of 30 RU.

B1: HAS042 (VHH)
VHH: EVQLVESGGGLVKPGGSLRLSCAASGRPVSNYAAAWFRQAPGKEREFVSAINWQKTATYADSVKGRFTISRDNAKNSLYLQMNSLRAEDTAVYYCAAVFRVVAPKTQYDYDYWGQGTLVTVSS
notes: anti-albumin VHH-His
For the molecule B1, the binding result (with human serum albumin [2]; in experiment [3]) was “binds” throughout.

B2: TPP-3212 (VHH)
VHH: B1 VHH
notes: Control: no anti-C5 domain (only anti-albumin)
B2: the binding result in experiment [4] is listed as “no binding”.

B3: MSA21 VHH domain (VHH)
VHH: QVQLQESGGGLVQPGGSLRLSCEASGFTFSRFGMTWVRQAPGKGVEWVSGISSLGDSTLYADSVKGRFTISRDNAKNTLYLQMNSLKPEDTAVYYCTIGGSLNPGGQGTQVTVSS
notes: Published comparator (WO 2004/062551 A2); also called ADL021
For the molecule B3, the Kd with human serum albumin [5] came out at 5.46 nM; in [6], 5.47 nM; with human serum albumin [7] it was 3.49 nM; in experiment [8], 3.85 nM. Besides, the off-rate (koff) with human serum albumin [5] was determined as 0.00181 s⁻¹; in experiment [6], 0.00153 s⁻¹; with human serum albumin [7], 0.00393 s⁻¹; in experiment [8] it was 0.00216 s⁻¹. The kon in the experiment with human serum albumin [5] is 330000 M⁻¹ s⁻¹; in experiment [6], 280000 M⁻¹ s⁻¹; with human serum albumin [7], 1.13e+06 M⁻¹ s⁻¹; in experiment [8], 561000 M⁻¹ s⁻¹.

B4: HAS041 (VHH)
VHH: QVQLIESGGGLVQAGGSLGLSCAASGRPVSNYAAAWFRQAPGKEREFVAAINWNKTATYADSVKGRFTISRDNAKSTVALQMNSLKPEDTAVYYCAAVFRVVAPKTQYDYDYWGQGTQVTVSS
notes: anti-albumin VHH-His; also called HAS41
For B4, the Kd with human serum albumin [5] came to 1.04 nM; in experiment [6] it was 2.37 nM; with human serum albumin [7], 0.461 nM; in [8], 1.15 nM. The koff with human serum albumin [5] was determined as 0.000387 s⁻¹; in [6], 0.000739 s⁻¹; in the experiment with human serum albumin [7], 0.000566 s⁻¹; in experiment [8], 0.00123 s⁻¹. The kon amounted to 373000 M⁻¹ s⁻¹ in the experiment with human serum albumin [5], 312000 M⁻¹ s⁻¹ in experiment [6], 1.23e+06 M⁻¹ s⁻¹ in the experiment with human serum albumin [7] and 1.07e+06 M⁻¹ s⁻¹ in experiment [8].

B5: TPP-3211 (VHH)
VHH: EVQLVESGGGLVQPGGSLRLSCAASGRAHSDYAMAWFRQAPGQEREFVAGIGWSGGDTLYADSVRGRFTNSRDNSKNTLYLQMNSLRAEDTAVYYCAARQGQYIYSSMRSDSYDYWGQGTLVTVSS
notes: Control: no anti-albumin domain (only anti-C5)
On to B5, for which the binding result in the experiment with human serum albumin [9] was “no binding”.

B6: CRL0483 (bispecific antibody)
chain: EVQLVESGGGLVQPGGSLRLSCAASGRTFSGILSPYAVGWFRQAPGKGLEFVSTITSGGSAIYTDSVKGRFTISRDNAKDSLYLQMNSLRAEDTAVYYCAVRTRRYGSNLGEVPQENEYGYWGQGTLVTVSSGGGGSGGGGSGGGGSEVQLLESGGGLVQPGGSLRLSCAASGFTFRSFGMSWVRQAPGKGPEWVSSISGSGSDTLYADSVKGRFTISRDNSKNTLYLQMNSLRPEDTAVYYCTIGGSLSRSSQGTLVTVSS
notes: anti-C5 VHH / (G4S)3 / anti-albumin VHH fusion, purified by Protein A; also called CRL0483 (C5/HSA)
Turning to B6, the Kd came out at 5.27 nM in experiment [10], 1.25 nM in [11], 1.07 nM in experiment [12] and 0.24 nM in experiment [13]. Further, the koff in [10] was determined as 0.000211 s⁻¹; in experiment [11] it was 4.62e-05 s⁻¹; in experiment [12] it was 0.000242 s⁻¹; in experiment [13], 2.2e-05 s⁻¹. Besides, the kon in [10] was found to be 40000 M⁻¹ s⁻¹; in experiment [11], 37100 M⁻¹ s⁻¹; in experiment [12] it was 225000 M⁻¹ s⁻¹; in experiment [13] it was 91500 M⁻¹ s⁻¹.

B7: CRL0484 (bispecific antibody)
chain: EVQLVESGGGLVQPGGSLRLSCAASGRTFSGILSPYAVGWFRQAPGKGLEFVSTITSGGSAIYTDSVKGRFTISRDNAKDSLYLQMNSLRAEDTAVYYCAVRTRRYGSNLGEVPQENEYGYWGQGTLVTVSSGGGGSGGGGSGGGGSEVQLVESGGGLVKPGGSLRLSCAASGRPVSNYAAAWFRQAPGKEREFVSAINWQKTATYADSVKGRFTISRDNAKNSLYLQMNSLRAEDTAVYYCAAVFRVVAPKTQYDYDYWGQGTLVTVSS
notes: anti-C5 VHH / (G4S)3 / anti-albumin VHH fusion, purified by Protein A; also called CRL0484 (C5/HSA)
Consider B7, for which the Kd was determined as 0.556 nM in experiment [10], 0.128 nM in experiment [11], 1.1 nM in [12] and 0.24 nM in experiment [13]. For the same molecule, the koff in experiment [10] stood at 0.000236 s⁻¹; in [11] it was 6.17e-06 s⁻¹; in experiment [12], 7.69e-05 s⁻¹; in experiment [13], 2.2e-05 s⁻¹. The kon turned out to be 425000 M⁻¹ s⁻¹ in experiment [10], 48200 M⁻¹ s⁻¹ in experiment [11], 70100 M⁻¹ s⁻¹ in experiment [12] and 91500 M⁻¹ s⁻¹ in experiment [13].

B8: CRL0500 (bispecific antibody)
chain: EVQLVESGGGLVKPGGSLRLSCAASGRPVSNYAAAWFRQAPGKEREFVSAINWQKTATYADSVKGRFTISRDNAKNSLYLQMNSLRAEDTAVYYCAAVFRVVAPKTQYDYDYWGQGTLVTVSSGGGGSGGGGSGGGGSEVQLVESGGGLVQPGGSLRLSCAASGRAHSDYAMAWFRQAPGQEREFVAGIGWSGGDTLYADSVRGRFTNSRDNSKNTLYLQMNSLRAEDTAVYYCAARQGQYIYSSMRSDSYDYWGQGTLVTVSS
notes: anti-albumin VHH / (G4S)3 / anti-C5 VHH fusion, purified by Protein A; also called CRL0500 (HSA/C5)
Regarding B8, the Kd in experiment [10] was found to be 0.189 nM; in experiment [11], 0.641 nM; in experiment [12] it was 0.233 nM; in experiment [13], 0.42 nM; in experiment [14], 0.138 nM; in [15], 0.744 nM. In addition, the Kd in [16] came out at 0.0512 nM; in [17], 0.219 nM; in [18] it was 2.12 nM; with Plasbumin® [19], 0.563 nM; in experiment [20], 3.78 nM; with Plasbumin® [21], 0.936 nM. The koff in experiment [10] worked out at 0.00152 s⁻¹; in [11], 0.0025 s⁻¹; in experiment [12], 0.000672 s⁻¹; in experiment [13] it was 0.000848 s⁻¹; in [14] it was 0.00104 s⁻¹; in [15], 0.0041 s⁻¹. For the same molecule, the koff is 0.000491 s⁻¹ in experiment [16]; 0.000818 s⁻¹ in [17]; 0.00693 s⁻¹ in [18]; 0.002 s⁻¹ with Plasbumin® [19]; 0.0126 s⁻¹ in [20]; 0.00346 s⁻¹ with Plasbumin® [21]. Further, the kon was 8.02e+06 M⁻¹ s⁻¹ in experiment [10]; 3.91e+06 M⁻¹ s⁻¹ in [11]; 2.88e+06 M⁻¹ s⁻¹ in [12]; 2e+06 M⁻¹ s⁻¹ in experiment [13]; 7.56e+06 M⁻¹ s⁻¹ in experiment [14]; 5.51e+06 M⁻¹ s⁻¹ in [15]. Further, the kon came out at 9.6e+06 M⁻¹ s⁻¹ in experiment [16]; 3.74e+06 M⁻¹ s⁻¹ in experiment [17]; 3.27e+06 M⁻¹ s⁻¹ in experiment [18]; 3.55e+06 M⁻¹ s⁻¹ in the experiment with Plasbumin® [19]; 3.32e+06 M⁻¹ s⁻¹ in [20]; 3.7e+06 M⁻¹ s⁻¹ with Plasbumin® [21].

B9: CRL0952 (bispecific antibody)
chain: B8 chain with S128A, S133A
Consider B9, for which the Kd in experiment [14] is 0.155 nM; in [15] it was 0.72 nM; in [16] it was 0.0536 nM; in [17] it was 0.223 nM; in experiment [18] it was 2.49 nM; with Plasbumin® [19] it was 0.649 nM. The values for the Kd (in experiment [20]; with Plasbumin® [21]) were 5.19 nM and 0.901 nM, respectively. Also, the koff in experiment [14] is 0.000907 s⁻¹; in experiment [15], 0.00399 s⁻¹; in experiment [16], 0.000539 s⁻¹; in experiment [17], 0.000786 s⁻¹; in experiment [18] it was 0.00755 s⁻¹; with Plasbumin® [19], 0.0021 s⁻¹. Further, the values for the koff (in experiment [20]; with Plasbumin® [21]) were 0.0152 s⁻¹ and 0.00359 s⁻¹, respectively. Also, the kon was 5.84e+06 M⁻¹ s⁻¹ in [14]; 5.55e+06 M⁻¹ s⁻¹ in experiment [15]; 1.01e+07 M⁻¹ s⁻¹ in experiment [16]; 3.53e+06 M⁻¹ s⁻¹ in experiment [17]; 3.03e+06 M⁻¹ s⁻¹ in experiment [18]; 3.23e+06 M⁻¹ s⁻¹ with Plasbumin® [19]. Moreover, the kon in experiment [20] stood at 2.93e+06 M⁻¹ s⁻¹; with Plasbumin® [21], 3.98e+06 M⁻¹ s⁻¹.
